The supplement of paper PMC5998384

Columns and labels:
HeLa Kyoto [1] = assay: thermal stability score vs G1/S (z-score of summed log2 fold changes over temperatures); higher = more thermally stable than in G1/S
HeLa Kyoto [2] = assay: solubility change mitosis vs G1/S (difference of NP-40 vs SDS log2 ratios) (log2 ratio difference); higher = more soluble in mitosis
HeLa Kyoto [3] = assay: solubility in G1/S (NP-40 vs SDS abundance) (log2 ratio); higher = more soluble; details: cell cycle stage: G1/S
HeLa Kyoto [4] = assay: melting temperature (median over replicates), in situ; higher = more thermally stable
[5] = cell cycle stage: early G1 (4.5 h after nocodazole release)
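Throughout, for melting temperature (median over replicates), in situ: HeLa Kyoto cells synchronized by double thymidine or nocodazole block, proteins quantified by TMT10plex mass spectrometry, three independent biological replicates.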
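Throughout, for solubility change mitosis vs G1/S (difference of NP-40 vs SDS log2 ratios): synchronized HeLa Kyoto cells (double thymidine block for G1/S, nocodazole release for mitosis), protein amounts in NP-40 versus SDS lysates quantified by mass spectrometry, three biological replicates.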
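Throughout, for solubility in G1/S (NP-40 vs SDS abundance): HeLa Kyoto cells arrested at G1/S by double thymidine block, proteins quantified by TMT10plex mass spectrometry in mild NP-40 versus SDS extracts, three biological replicates.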
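Throughout, for thermal stability score vs G1/S (z-score of summed log2 fold changes over temperatures): synchronized HeLa Kyoto cells, proteins quantified by TMT10plex mass spectrometry, three biological replicates, mitosis taken 0.5 h after nocodazole release, G1/S directly after double thymidine block.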

| Substance | thermal stability score (HeLa Kyoto [1]; [5]) | thermal stability score (HeLa Kyoto [1]; cell cycle stage: mitosis) | solubility change mitosis (log2) (HeLa Kyoto [2]) | solubility in G1/S (log2) (HeLa Kyoto [3]) | melting temperature (HeLa Kyoto [4]; cell cycle stage: G1/S) [°C] | melting temperature (HeLa Kyoto [4]; cell cycle stage: mitosis) [°C] |
| --- | --- | --- | --- | --- | --- | --- |
| MAAGGSTQQRRREMAAASAAAISGAGRCRLSKIGATRRPPPARVRVAVRLRPFVDGTAGASDPPCVRGMDSCSLEIANWRNHQETLKYQFDAFYGERSTQQDIYAGSVQPILRHLLEGQNASVLAYGPTGAGKTHTMLGSPEQPGVIPRALMDLLQLTREEGAEGRPWALSVTMSYLEIYQEKVLDLLDPASGDLVIREDCRGNILIPGLSQKPISSFADFERHFLPASRNRTVGATRLNQRSSRSHAVLLVKVDQRERLAPFRQREGKLYLIDLAGSEDNRRTGNKGLRLKESGAINTSLFVLGKVVDALNQGLPRVPYRDSKLTRLLQDSLGGSAHSILIANIAPERRFYLDTVSALNFAARSKEVINRPFTNESLQPHALGPVKLSQKELLGPPEAKRARGPEEEEIGSPEPMAAPASASQKLSPLQKLSSMDPAMLERLLSLDRLLASQGSQGAPLLSTPKRERMVLMKTVEEKDLEIERLKTKQKELEAKMLAQKAEEKENHCPTMLRPLSHRTVTGAKPLKKAVVMPLQLIQEQAASPNAEIHILKNKGRKRKLESLDALEPEEKAEDCWELQISPELLAHGRQKILDLLNEGSARDLRSLQRIGPKKAQLIVGWRELHGPFSQVEDLERVEGITGKQMESFLKANILGLAAGQRCGAS [KIF22] | 1.72 | 2.31 | 0.342 | -0.459 | 50 | 48.2 |
| MAPAGCCCCCCFWGGAVAAAGAARRVLLLLLLGVLSAGLRPGALATEHYSPLSLLKQELQHRQQQEAPAGGGGCSPQSGDWGDQYSAECGESSFLNFHDSDCEPKGSSPCDSLLSLNTEKILSQAKSIAEQKRFPFATDNDSTNEELAIAYVLIGSGLYDEAIRHFSTMLQEEPDLVSAIYGRGIAYGKKGLHDIKNAELALFELSRVITLEPDRPEVFEQRAEILSPLGRINEAVNDLTKAIQLQPSARLYRHRGTLYFISEDYATAHEDFQQSLELNKNQPIAMLYKGLTFFHRGLLKEAIESFKEALKQKVDFIDAYKSLGQAYRELGNFEAATESFQKALLLNQNHVQTLQLRGMMLYHHGSLQEALKNFKRCLQLEPYNEVCQYMKGLSHVAMGQFYEGIKAQTKVMLNDPLPGQKASPEYLKVKYLREYSRYLHAHLDTPLTEYNIDVDLPGSFKDHWAKNLPFLIEDYEEQPGLQPHIKDVLHQNFESYKPEVQELICVADRLGSLMQYETPGFLPNKRIHRAMGLAALEVMQAVQRTWTNSKVRMNGKTRLMQWRDMFDIAVKWRRIADPDQPVLWLDQMPARSLSRGFNNHINLIRGQVINMRYLEYFEKILHFIKDRILVYHGANNPKGLLEVREALEKVHKVEDLLPIMKQFNTKTKDGFTVNTKVPSLKDQGKEYDGFTITITGDKVGNILFSVETQTTEERTQLYHAEIDALYKDLTAKGKVLILSSEFGEADAVCNLILSLVYYFYNLMPLSRGSSVIAYSVIVGALMASGKEVAGKIPKGKLVDFEAMTAPGSEAFSKVAKSWMNLKSISPSYKTLPSVSETFPTLRSMIEVLNTDSSPRCLKKL [TTC13] | 1.53 | 0.195 | -0.163 | 0.165 | 52.7 | 53.3 |
| PKN2 | 0.95 | 1.36 | -0.163 | -0.0314 | 48.3 | 49.3 |
| KDM5C | 0.484 | 0.572 | -0.075 | -0.0935 | 49.3 | 50 |
| MFLVGLTGGIASGKSSVIQVFQQLGCAVIDVDVMARHVVQPGYPAHRRIVEVFGTEVLLENGDINRKVLGDLIFNQPDRRQLLNAITHPEIRKEMMKETFKYFLRGYRYVILDIPLLFETKKLLKYMKHTVVVYCDRDTQLARLMRRNSLNRKDAEARINAQLPLTDKARMARHVLDNSGEWSVTKRQVILLHTELERSLEYLPLRFGVLTGLAAIASLLYLLTHYLLPYA [DCAKD] | -0.154 | 0.0944 | -0.182 | -0.0828 | 51.7 | 50.9 |
| MANEVIKCKAAVAWEAGKPLSIEEIEVAPPKAHEVRIKIIATAVCHTDAYTLSGADPEGCFPVILGHEGAGIVESVGEGVTKLKAGDTVIPLYIPQCGECKFCLNPKTNLCQKIRVTQGKGLMPDGTSRFTCKGKTILHYMGTSTFSEYTVVADISVAKIDPLAPLDKVCLLGCGISTGYGAAVNTAKLEPGSVCAVFGLGGVGLAVIMGCKVAGASRIIGVDINKDKFARAKEFGATECINPQDFSKPIQEVLIEMTDGGVDYSFECIGNVKVMRAALEACHKGWGVSVVVGVAASGEEIATRPFQLVTGRTWKGTAFGGWKSVESVPKLVSEYMSKKIKVDEFVTHNLSFDEINKAFELMHSGKSIRTVVKI [ADH5] | -4.67 | -2.86 | -0.171 | 0.147 | 56.8 | 56.7 |
| MAAAEGPVGDGELWQTWLPNHVVFLRLREGLKNQSPTEAEKPASSSLPSSPPPQLLTRNVVFGLGGELFLWDGEDSSFLVVRLRGPSGGGEEPALSQYQRLLCINPPLFEIYQVLLSPTQHHVALIGIKGLMVLELPKRWGKNSEFEGGKSTVNCSTTPVAERFFTSSTSLTLKHAAWYPSEILDPHVVLLTSDNVIRIYSLREPQTPTNVIILSEAEEESLVLNKGRAYTASLGETAVAFDFGPLAAVPKTLFGQNGKDEVVAYPLYILYENGETFLTYISLLHSPGNIGKLLGPLPMHPAAEDNYGYDACAVLCLPCVPNILVIATESGMLYHCVVLEGEEEDDHTSEKSWDSRIDLIPSLYVFECVELELALKLASGEDDPFDSDFSCPVKLHRDPKCPSRYHCTHEAGVHSVGLTWIHKLHKFLGSDEEDKDSLQELSTEQKCFVEHILCTKPLPCRQPAPIRGFWIVPDILGPTMICITSTYECLIWPLLSTVHPASPPLLCTREDVEVAESPLRVLAETPDSFEKHIRSILQRSVANPAFLKASEKDIAPPPEECLQLLSRATQVFREQYILKQDLAKEEIQRRVKLLCDQKKKQLEDLSYCREERKSLREMAERLADKYEEAKEKQEDIMNRMKKLLHSFHSELPVLSDSERDMKKELQLIPDQLRHLGNAIKQVTMKKDYQQQKMEKVLSLPKPTIILSAYQRKCIQSILKEEGEHIREMVKQINDIRNHVNF [NUP88] | -1.46 | -0.755 | 0.171 | -0.268 | 50.4 | 48.8 |
| MEEEDESRGKTEESGEDRGDGPPDRDPTLSPSAFILRAIQQAVGSSLQGDLPNDKDGSRCHGLRWRRCRSPRSEPRSQESGGTDTATVLDMATDSFLAGLVSVLDPPDTWVPSRLDLRPGESEDMLELVAEVRIGDRDPIPLPVPSLLPRLRAWRTGKTVSPQSNSSRPTCARHLTLGTGDGGPAPPPAPSSASSSPSPSPSSSSPSPPPPPPPPAPPAPPAPRFDIYDPFHPTDEAYSPPPAPEQKYDPFEPTGSNPSSSAGTPSPEEEEEEEEEEEEEEEDEEEEEGLSQSISRISETLAGIYDDNSLSQDFPGDESPRPDAQPTQPTPAPGTPPQVDSTRADGAMRRRVFVVGTEAEACREGKVSVEVVTAGGAALPPPLLPPGDSEIEEGEIVQPEEEPRLALSLFRPGGRAARPTPAASATPTAQPLPQPPAPRAPEGDDFLSLHAESDGEGALQVDLGEPAPAPPAADSRWGGLDLRRKILTQRRERYRQRSPSPAPAPAPAAAAGPPTRKKSRRERKRSGEAKEAASSSSGTQPAPPAPASPWDSKKHRSRDRKPGSHASSSARRRSRSRSRSRSTRRRSRSTDRRRGGSRRSRSREKRRRRRRSASPPPATSSSSSSRRERHRGKHRDGGGSKKKKKRSRSRGEKRSGDGSEKAPAPAPPPSGSTSCGDRDSRRRGAVPPSIQDLTDHDLFAIKRTITVGRLDKSDPRGPSPAPASSPKREVLYDSEGLSGEERGGKSSQKDRRRSGAASSSSSSREKGSRRKALDGGDRDRDRDRDRDRDRSSKKARPPKESAPSSGPPPKPPVSSGSGSSSSSSSCSSRKVKLQSKVAVLIREGVSSTTPAKDAASAGLGSIGVKFSRDRESRSPFLKPDERAPTEMAKAAPGSTKPKKTKVKAKAGAKKTKGTKGKTKPSKTRKKVRSGGGSGGSGGQVSLKKSKADSCSQAAGTKGAEETSWSGEERAAKVPSTPPPKAAPPPPALTPDSQTVDSSCKTPEVSFLPEEATEEAGVRGGAEEEEEEEEEEEEEEEEEEQQPATTTATSTAAAAPSTAPSAGSTAGDSGAEDGPASRVSQLPTLPPPMPWNLPAGVDCTTSGVLALTALLFKMEEANLASRAKAQELIQATNQILSHRKPPSSLGMTPAPVPTSLGLPPGPSSYLLPGSLPLGGCGSTPPTPTGLAATSDKREGSSSSEGRGDTDKYLKKLHTQERAVEEVKLAIKPYYQKKDITKEEYKDILRKAVHKICHSKSGEINPVKVSNLVRAYVQRYRYFRKHGRKPGDPPGPPRPPKEPGPPDKGGPGLPLPPL [SCAF1] | -0.0585 | 1.29 | 1.41 | -1.69 | 49.5 | 50.2 |
| MASTTSTKKMMEEATCSICLSLMTNPVSINCGHSYCHLCITDFFKNPSQKQLRQETFCCPQCRAPFHMDSLRPNKQLGSLIEALKETDQEMSCEEHGEQFHLFCEDEGQLICWRCERAPQHKGHTTALVEDVCQGYKEKLQKAVTKLKQLEDRCTEQKLSTAMRITKWKEKVQIQRQKIRSDFKNLQCFLHEEEKSYLWRLEKEEQQTLSRLRDYEAGLGLKSNELKSHILELEEKCQGSAQKLLQNVNDTLSRSWAVKLETSEAVSLELHTMCNVSKLYFDVKKMLRSHQVSVTLDPDTAHHELILSEDRRQVTRGYTQENQDTSSRRFTAFPCVLGCEGFTSGRRYFEVDVGEGTGWDLGVCMENVQRGTGMKQEPQSGFWTLRLCKKKGYVALTSPPTSLHLHEQPLLVGIFLDYEAGVVSFYNGNTGCHIFTFPKASFSDTLRPYFQVYQYSPLFLPPPGD [TRIM38] | -0.0637 | -0.487 | 0.155 | -0.661 | – | 48.8 |
| MPAPTQLFFPLIRNCELSRIYGTACYCHHKHLCCSSSYIPQSRLRYTPHPAYATFCRPKENWWQYTQGRRYASTPQKFYLTPPQVNSILKANEYSFKVPEFDGKNVSSILGFDSNQLPANAPIEDRRSAATCLQTRGMLLGVFDGHAGCACSQAVSERLFYYIAVSLLPHETLLEIENAVESGRALLPILQWHKHPNDYFSKEASKLYFNSLRTYWQELIDLNTGESTDIDVKEALINAFKRLDNDISLEAQVGDPNSFLNYLVLRVAFSGATACVAHVDGVDLHVANTGDSRAMLGVQEEDGSWSAVTLSNDHNAQNERELERLKLEHPKSEAKSVVKQDRLLGLLMPFRAFGDVKFKWSIDLQKRVIESGPDQLNDNEYTKFIPPNYHTPPYLTAEPEVTYHRLRPQDKFLVLATDGLWETMHRQDVVRIVGEYLTGMHHQQPIAVGGYKVTLGQMHGLLTERRTKMSSVFEDQNAATHLIRHAVGNNEFGTVDHERLSKMLSLPEELARMYRDDITIIVVQFNSHVVGAYQNQE [PDP1] | 0.767 | 1.07 | -0.0758 | 0.103 | 52.7 | 51.6 |
| MMKLRHKNKKPGEGSKGHKKISWPYPQPAKQNGKKATSKVPSAPHFVHPNDHANREAELKKKWVEEMREKQQAAREQERQKRRTIESYCQDVLRRQEEFEHKEEVLQELNMFPQLDDEATRKAYYKEFRKVVEYSDVILEVLDARDPLGCRCFQMEEAVLRAQGNKKLVLVLNKIDLVPKEVVEKWLDYLRNELPTVAFKASTQHQVKNLNRCSVPVDQASESLLKSKACFGAENLMRVLGNYCRLGEVRTHIRVGVVGLPNVGKSSLINSLKRSRACSVGAVPGITKFMQEVYLDKFIRLLDAPGIVPGPNSEVGTILRNCVHVQKLADPVTPVETILQRCNLEEISNYYGVSGFQTTEHFLTAVAHRLGKKKKGGLYSQEQAAKAVLADWVSGKISFYIPPPATHTLPTHLSAEIVKEMTEVFDIEDTEQANEDTMECLATGESDELLGDTDPLEMEIKLLHSPMTKIADAIENKTTVYKIGDLTGYCTNPNRHQMGWAKRNVDHRPKSNSMVDVCSVDRRSVLQRIMETDPLQQGQALASALKNKKKMQKRADKIASKLSDSMMSALDLSGNADDGVGD [GNL3L] | 3.18 | 4.42 | 0.334 | -0.846 | 48.1 | 50.3 |
